Source: paper PMC3585378 (PLoS ONE, 2013)

B1: His6-OspG (natural protein)
chain: MKITSTIIQTPFPFENNNSHAGIVTEPILGKLIGQGSTAEIFEDVNDSSALYKKYDLIGNQYNEILEMAWQESELFNAFYGDEASVVIQYGGDVYLRMLRVPGTPLSDIDTADIPDNIESLYLQLICKLNELSIIHYDLNTGNMLYDKESESLFPIDFRNIYAEYYAATKKDKEIIDRRLQMRTNDFYSLLNRKYL
notes: source: E. coli BL21 (DE3), purified (Ni-NTA)
B2: GST-tagged OspG protein (GST-OspG) (natural protein)
chain: B1 chain
notes: source: E. coli BL21 (DE3), purified (glutathione-Sepharose)

Key:
GST-ubiquitin = molecular target: T1, GST-ubiquitin (UniProt P0CG48 1-76); experiment: pull-down; conditions: both partners purified
T1 construct: also called GST-tagged ubiquitin

His6-ubiquitin = His6-ubiquitin (UniProt P0CG48 1-76); experiment: pull-down; conditions: both partners purified

Row | Binder | binding result (GST-ubiquitin) | binding result (His6-ubiquitin)
1 | B1 | binds | 
2 | B2 |  | binds
